Key:
[1] = target: T1, His-RcrR (Streptococcus mutans UA159) (UniProt Q8DUK6); experiment: EMSA
T1 sequence: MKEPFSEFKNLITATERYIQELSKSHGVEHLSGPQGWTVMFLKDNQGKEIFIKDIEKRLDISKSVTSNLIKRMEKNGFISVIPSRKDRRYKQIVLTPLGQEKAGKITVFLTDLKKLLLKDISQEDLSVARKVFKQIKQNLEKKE

[2] = target: T1, His-RcrR (Streptococcus mutans UA159); experiment: DNase I footprinting

Sequence	binding [1]	binding [2]
AAAAACTCCTTTAAATTTCGTTAAGGATAATTTTGAGCAGTAAAAAAGCTCCTAATATAAAAATAGGAGCTGCCAAATAATAGGCTGGTTTTTTTTATAGATGGCTTCTCCCAAACATCCTTATGTAATTCTTCAATATGGTAACATGAAAATAGGGAAAAAGCAAATTTGTTCAATAAAGCCA (double strand) [P1 (rcrR promoter fragment 1)]	no binding	–
AGCGGTTTGAGCACTTTCACTACAGCGAAAAAGCAATCGTTTAAAGTGACTTTATCACCATCAAGCTATAAAAAATTAAATTAGTTCTCATAGAAACTTTTTTCTTGACAATAGTTTAAGGAATCATTATAATAGTTTTCATGAGAACTATTATAATATTCTCATAAAAAGTGAGGTGTTTTT (double strand) [P3 (rcrR promoter fragment 3)]	binds	–
AGCGGTTTGAGCACTTTCACTACAGCGAAAAAGCAATCGTTTAAAGTGACTTTATCACCATCAAGCTATAAAAAATTAAATTAGTTCTCATAGAAACTTTTTTCTTGACAATAGTTTAAGGAATCATTATAATAGTTTTCATGAGAACTATTATAATATTCTCATAAAAAGTGAGGTGTTTTT (double strand) [P3 FAM-labeled]	–	binds
GTCTTAGAAAGTAGTCAGAAGGATTAGACTTGTTTGGAAATGAATTATTCTTTTTATGGTTGTGGCTTTTCTTAAGTAATGAAGGCGAAAAGTGAATAGTCCAGCGGACTATTTTAGAAATTCAAGGGAGTTCCATTCTTTTTGGCGCCCCTAGGTCTTACCAACACCTCATGATAGAACTATA (double strand) [P2 (rcrR promoter fragment 2)]	no binding	–
TAAATTTTTCCTAGGTTAACCTAGTCCTCCTTTAATATGATAACAGTACGTTTACTTTTTCATTGTAAACGATTACAAATTTGTTGGCAAGTTGTCCATAGGAAAAAAGCGCAATTTTTGTTAAAATAAAGTCAGTTGTATGCATTTTTTTAGACAAATTAGATTGAATTGCTTA (double strand) [PSMU_2038 (trehalose PTS promoter)]	binds	–
